Data on seven molecules can be found in patent US12692305 (REVERB THERAPEUTICS, dated 2026).

Residue numbers refer to the chain shown, from its start.

The chains are these.
B1: RV31 (bispecific antibody, human IgG1, kappa, lambda, L234A L235A)
heavy: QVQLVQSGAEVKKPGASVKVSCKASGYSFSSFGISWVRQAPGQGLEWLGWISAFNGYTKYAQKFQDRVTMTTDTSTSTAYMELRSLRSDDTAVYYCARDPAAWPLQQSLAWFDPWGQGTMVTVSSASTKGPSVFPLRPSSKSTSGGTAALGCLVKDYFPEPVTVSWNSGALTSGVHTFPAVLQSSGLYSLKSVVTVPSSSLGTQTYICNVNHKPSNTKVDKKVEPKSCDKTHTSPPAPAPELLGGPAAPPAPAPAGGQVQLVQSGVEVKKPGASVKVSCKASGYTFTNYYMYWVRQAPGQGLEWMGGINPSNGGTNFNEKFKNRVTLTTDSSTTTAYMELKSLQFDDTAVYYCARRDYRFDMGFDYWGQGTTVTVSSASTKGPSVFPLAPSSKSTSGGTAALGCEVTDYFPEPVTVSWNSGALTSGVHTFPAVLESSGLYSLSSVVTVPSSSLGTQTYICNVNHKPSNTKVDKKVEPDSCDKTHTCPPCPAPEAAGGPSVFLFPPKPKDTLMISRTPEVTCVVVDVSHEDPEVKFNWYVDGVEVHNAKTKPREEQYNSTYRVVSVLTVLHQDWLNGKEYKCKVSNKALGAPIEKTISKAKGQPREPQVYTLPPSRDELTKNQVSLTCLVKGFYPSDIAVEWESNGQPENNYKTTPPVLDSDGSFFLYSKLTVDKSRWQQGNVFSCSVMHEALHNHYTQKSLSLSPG
light 1: EIVLTQSPATLSLSPGERATLSCRASKGVSTSGYSYLHWYQQKPGQAPRLLIYLASYLESGVPARFSGSGSGTDFTLTISSLEPEDFAVYYCQHSRDLPLTFGGGTKVEIKRTVAAPSVFIFPPKDERLKSGTASVVCLLNNFYPREAKVQWKVDNALQSGNSQESVTEQDSKDSTYSLSSRLTLSKADYEKHKVYACEVTHQGLSSPVTKSFNRGEC
light 2: QSVLTQPPSASGTPGQRVTISCSGSTSNLKRNYVYWYQQLPGTAPKLLIYRDRRRPSGVPDRFSGSKSGTSASLAISGLRSEDEADYYCAWYDRELSEWVFGGGTKLTVLQPKAAPSVTLFPPSDEELQANTATLVCLISDFYPGAVTVAWKADSSPVKAGVETTTPSKQSNNKYAAESELSLTPEQWKSHRSYSCQVTHEGSTVEKTVAPTECS
notes: Dual Fab domain format (H1H1L1L1L2L2), IgG1 LALAPG; Purity 83 % main peak; O-glycosylation reported, likely in the inter-Fab linker
B2: RV32 (bispecific antibody, human IgG1, kappa, lambda, L234A L235A)
heavy: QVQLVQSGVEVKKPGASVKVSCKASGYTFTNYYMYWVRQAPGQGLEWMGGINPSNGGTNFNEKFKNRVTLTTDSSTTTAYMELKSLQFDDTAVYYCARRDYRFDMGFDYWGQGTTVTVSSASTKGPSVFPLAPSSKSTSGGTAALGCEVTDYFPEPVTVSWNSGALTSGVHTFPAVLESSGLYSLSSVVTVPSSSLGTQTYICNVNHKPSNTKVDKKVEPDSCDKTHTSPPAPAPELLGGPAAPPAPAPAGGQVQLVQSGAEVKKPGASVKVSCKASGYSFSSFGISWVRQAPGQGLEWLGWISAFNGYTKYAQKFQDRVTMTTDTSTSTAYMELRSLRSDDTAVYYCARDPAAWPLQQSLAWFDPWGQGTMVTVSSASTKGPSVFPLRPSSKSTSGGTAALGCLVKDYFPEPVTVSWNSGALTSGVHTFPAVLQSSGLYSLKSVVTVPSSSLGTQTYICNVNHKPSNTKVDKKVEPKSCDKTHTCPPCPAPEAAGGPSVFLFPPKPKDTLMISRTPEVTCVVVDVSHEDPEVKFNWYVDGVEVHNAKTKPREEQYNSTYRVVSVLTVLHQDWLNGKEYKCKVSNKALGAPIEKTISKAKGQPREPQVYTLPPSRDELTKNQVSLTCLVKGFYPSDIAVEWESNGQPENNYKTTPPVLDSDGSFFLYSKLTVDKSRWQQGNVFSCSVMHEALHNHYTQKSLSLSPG
light 1: B1 light 1
light 2: B1 light 2
notes: Dual Fab domain format (H1H1L1L1L2L2), IgG1 LALAPG; O-glycosylation reported, likely in the inter-Fab linker; also called bispecific antibody in dual Fab domain format (RV32); bispecific anti-PD-1 x anti-IL-15 antibody
B3: RV36 (bispecific antibody, human IgG1, kappa, L234A L235A)
heavy: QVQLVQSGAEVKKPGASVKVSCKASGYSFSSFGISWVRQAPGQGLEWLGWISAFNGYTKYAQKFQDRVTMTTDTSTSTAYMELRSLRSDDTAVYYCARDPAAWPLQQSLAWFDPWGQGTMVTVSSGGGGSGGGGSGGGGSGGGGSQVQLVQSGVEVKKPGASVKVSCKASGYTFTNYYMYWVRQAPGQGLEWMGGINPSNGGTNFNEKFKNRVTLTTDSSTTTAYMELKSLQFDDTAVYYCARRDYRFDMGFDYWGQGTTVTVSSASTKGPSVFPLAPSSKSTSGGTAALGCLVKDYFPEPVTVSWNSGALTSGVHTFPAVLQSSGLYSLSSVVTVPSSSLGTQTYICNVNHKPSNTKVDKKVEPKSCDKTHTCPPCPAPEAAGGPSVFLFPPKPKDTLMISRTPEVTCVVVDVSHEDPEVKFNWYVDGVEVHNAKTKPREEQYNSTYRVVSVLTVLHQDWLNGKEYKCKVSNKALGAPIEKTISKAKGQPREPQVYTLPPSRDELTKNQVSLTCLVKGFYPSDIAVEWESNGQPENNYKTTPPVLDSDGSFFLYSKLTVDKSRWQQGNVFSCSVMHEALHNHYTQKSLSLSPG
light: QSVLTQPPSASGTPGQRVTISCSGSTSNLKRNYVYWYQQLPGTAPKLLIYRDRRRPSGVPDRFSGSKSGTSASLAISGLRSEDEADYYCAWYDRELSEWVFGGGTKLTVLGGGGSGGGGSGGGGSGGGGSEIVLTQSPATLSLSPGERATLSCRASKGVSTSGYSYLHWYQQKPGQAPRLLIYLASYLESGVPARFSGSGSGTDFTLTISSLEPEDFAVYYCQHSRDLPLTFGGGTKVEIKRTVAAPSVFIFPPSDEQLKSGTASVVCLLNNFYPREAKVQWKVDNALQSGNSQESVTEQDSKDSTYSLSSTLTLSKADYEKHKVYACEVTHQGLSSPVTKSFNRGEC
notes: Dual variable domain format like RV29 but with a longer inter-Fv linker, IgG1 LALAPG
B4: RV1 (antibody, human IgG1, lambda, V domains shown)
VH: QVQLVQSGAEVKKPGASVKVSCKASGYSFSSFGISWVRQAPGQGLEWLGWISAFNGYTKYAQKFQDRVTMTTDTSTSTAYMELRSLRSDDTAVYYCARDPAAWPLQQSLAWFDPWGQGTMVTVSS
VL: QSVLTQPPSASGTPGQRVTISCSGSTSNLKRNYVYWYQQLPGTAPKLLIYRDRRRPSGVPDRFSGSKSGTSASLAISGLRSEDEADYYCAWYDRELSEWVFGGGTKLTVLQ
notes: also called anti-IL-15 antibody (RV1); DISC0280-derived monospecific parent antibody
B5: RV29 (bispecific antibody, human IgG1, kappa, L234A L235A)
heavy: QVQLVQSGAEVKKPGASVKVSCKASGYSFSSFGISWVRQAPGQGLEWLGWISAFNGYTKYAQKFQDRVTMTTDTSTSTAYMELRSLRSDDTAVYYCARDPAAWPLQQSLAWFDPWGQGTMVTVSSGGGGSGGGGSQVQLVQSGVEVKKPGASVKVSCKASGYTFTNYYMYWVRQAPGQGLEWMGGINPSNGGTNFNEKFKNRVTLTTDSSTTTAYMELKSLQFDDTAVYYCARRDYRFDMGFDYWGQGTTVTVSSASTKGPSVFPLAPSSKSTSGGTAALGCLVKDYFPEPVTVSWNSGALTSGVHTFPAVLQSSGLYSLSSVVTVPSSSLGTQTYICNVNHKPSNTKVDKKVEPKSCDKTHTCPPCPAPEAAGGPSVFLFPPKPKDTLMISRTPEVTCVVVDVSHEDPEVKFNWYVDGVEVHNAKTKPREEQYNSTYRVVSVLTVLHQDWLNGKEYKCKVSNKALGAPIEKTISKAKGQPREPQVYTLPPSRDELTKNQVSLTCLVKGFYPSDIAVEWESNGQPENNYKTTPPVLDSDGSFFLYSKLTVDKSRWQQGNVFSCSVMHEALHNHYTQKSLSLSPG
light: QSVLTQPPSASGTPGQRVTISCSGSTSNLKRNYVYWYQQLPGTAPKLLIYRDRRRPSGVPDRFSGSKSGTSASLAISGLRSEDEADYYCAWYDRELSEWVFGGGTKLTVLGGGGSGGGGSEIVLTQSPATLSLSPGERATLSCRASKGVSTSGYSYLHWYQQKPGQAPRLLIYLASYLESGVPARFSGSGSGTDFTLTISSLEPEDFAVYYCQHSRDLPLTFGGGTKVEIKRTVAAPSVFIFPPSDEQLKSGTASVVCLLNNFYPREAKVQWKVDNALQSGNSQESVTEQDSKDSTYSLSSTLTLSKADYEKHKVYACEVTHQGLSSPVTKSFNRGEC
notes: Dual variable domain format, IgG1 LALAPG; also called bispecific antibody in DVD format (RV29); bispecific anti-PD-1 x anti-IL-15 antibody
B6: RV26 (bispecific antibody, human IgG1, lambda, L234A L235A)
heavy 1: QVQLVQSGAEVKKPGASVKVSCKASGYSFSSFGISWVRQAPGQGLEWLGWISAFNGYTKYAQKFQDRVTMTTDTSTSTAYMELRSLRSDDTAVYYCARDPAAWPLQQSLAWFDPWGQGTMVTVSSASTKGPSVFPLAPSSKSTSGGTAALGCLVKDYFPEPVTVSWNSGALTSGVHTFPAVLQSSGLYSLSSVVTVPSSSLGTQTYICNVNHKPSNTKVDKKVEPKSCDKTHTCPPCPAPEAAGGPSVFLFPPKPKDTLMISRTPEVTCVVVDVSHEDPEVKFNWYVDGVEVHNAKTKPREEQYNSTYRVVSVLTVLHQDWLNGKEYKCKVSNKALGAPIEKTISKAKGQPREPQVYVYPPSRDELTKNQVSLTCLVKGFYPSDIAVEWESNGQPENNYKTTPPVLDSDGSFALVSKLTVDKSRWQQGNVFSCSVMHEALHNHYTQKSLSLSPGKGGGGSGGGGSGGGGSGGGGSEIVLTQSPATLSLSPGERATLSCRASKGVSTSGYSYLHWYQQKPGQAPRLLIYLASYLESGVPARFSGSGSGTDFTLTISSLEPEDFAVYYCQHSRDLPLTFGCGTKVEIKGGSGGGSGGGSGGGSGGGSGQVQLVQSGVEVKKPGASVKVSCKASGYTFTNYYMYWVRQAPGQCLEWMGGINPSNGGTNFNEKFKNRVTLTTDSSTTTAYMELKSLQFDDTAVYYCARRDYRFDMGFDYWGQGTTVTVSS
heavy 2: QVQLVQSGAEVKKPGASVKVSCKASGYSFSSFGISWVRQAPGQGLEWLGWISAFNGYTKYAQKFQDRVTMTTDTSTSTAYMELRSLRSDDTAVYYCARDPAAWPLQQSLAWFDPWGQGTMVTVSSASTKGPSVFPLAPSSKSTSGGTAALGCLVKDYFPEPVTVSWNSGALTSGVHTFPAVLQSSGLYSLSSVVTVPSSSLGTQTYICNVNHKPSNTKVDKKVEPKSCDKTHTCPPCPAPEAAGGPSVFLFPPKPKDTLMISRTPEVTCVVVDVSHEDPEVKFNWYVDGVEVHNAKTKPREEQYNSTYRVVSVLTVLHQDWLNGKEYKCKVSNKALGAPIEKTISKAKGQPREPQVYVLPPSRDELTKNQVSLLCLVKGFYPSDIAVEWESNGQPENNYLTWPPVLDSDGSFFLYSKLTVDKSRWQQGNVFSCSVMHEALHNHYTQKSLSLSPG
light: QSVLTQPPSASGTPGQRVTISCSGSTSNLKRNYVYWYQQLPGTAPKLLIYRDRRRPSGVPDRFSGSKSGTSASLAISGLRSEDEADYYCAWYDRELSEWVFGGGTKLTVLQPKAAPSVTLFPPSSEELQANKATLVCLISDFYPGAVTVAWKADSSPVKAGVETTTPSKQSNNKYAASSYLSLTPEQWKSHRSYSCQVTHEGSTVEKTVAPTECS
notes: Heterodimeric IgG1 LALAPG, two anti-IL-15 Fabs and one anti-PD1 scFv (H1H2L1L1); also called fusion of 1 scFv to a HC of a bispecific antibody in Fab-Fab format (RV26)
B7: RV15 (bispecific antibody, human IgG1, kappa, lambda, L234A L235A)
heavy 1: QVQLVQSGVEVKKPGASVKVSCKASGYTFTNYYMYWVRQAPGQGLEWMGGINPSNGGTNFNEKFKNRVTLTTDSSTTTAYMELKSLQFDDTAVYYCARRDYRFDMGFDYWGQGTTVTVSSASTKGPSVFPLAPSSKSTSGGTAALGCEVTDYFPEPVTVSWNSGALTSGVHTFPAVLESSGLYSLSSVVTVPSSSLGTQTYICNVNHKPSNTKVDKKVEPDSCDKTHTCPPCPAPEAAGGPSVFLFPPKPKDTLMISRTPEVTCVVVDVSHEDPEVKFNWYVDGVEVHNAKTKPREEQYNSTYRVVSVLTVLHQDWLNGKEYKCKVSNKALGAPIEKTISKAKGQPREPQVYVYPPSRDELTKNQVSLTCLVKGFYPSDIAVEWESNGQPENNYKTTPPVLDSDGSFALVSKLTVDKSRWQQGNVFSCSVMHEALHNHYTQKSLSLSPG
light 1: B1 light 1
heavy 2: B6 heavy 2 with A137R, S191K
light 2: B1 light 2
notes: Asymmetric IgG1 LALAPG heterodimer, one anti-PD1 Fab arm and one anti-IL-15 Fab arm (H1H2L1L2); also called bispecific antibody in a Fab-Fab format (RV15)

The target in the first assay is T1, human PD-1 (human, UniProt Q15116 25-167, limits assumed).
T1 construct: Recombinant protein used in SPR as analyte or amine-coupled ligand; also called PD1 antigen
T1 sequence (Q15116 25-167 limits assumed): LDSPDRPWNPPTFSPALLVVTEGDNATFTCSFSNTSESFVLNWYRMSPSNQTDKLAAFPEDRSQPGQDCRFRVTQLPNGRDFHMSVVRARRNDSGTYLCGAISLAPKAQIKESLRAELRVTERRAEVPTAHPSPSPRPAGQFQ
Put plainly: SPR, variant as analyte over immobilised PD1 (avidity possible). (In SPR one partner is held on a chip, and binding of the other changes the refractive index at the surface.)
In turn, B1 registered a Kd of 0.163 nM.

B2 displayed a Kd of 0.0678 nM.

Regarding B3, the Kd is 0.243 nM.

The next assay deals with T1, human PD-1. Put plainly: SPR, variant captured on protein A, PD1 analyte. The procedure:
EDC: 1-ethyl-3-(3-dimethylaminopropyl) carbodiimide hydrochloride; NHS: N-Hydroxysuccinimide; SPR: surface plasmon resonance; EDTA: ethylenediaminetetraacetic acid SPR Supplies Series S Sensor Chip CM5, Biacore amine coupling kit (NHS, EDC and 1 M ethanolamine), and 10 mM sodium acetate buffers were purchased from Cytiva Life Sciences (Marlborough, MA). […] PBS running buffer with 1% Tween20 (PBST) was purchased from Teknova Inc. (Hollister, Calif.). Goat polyclonal anti-human Fc antibody was purchased from Jackson Immuno Research Laboratories Inc. (West Grove, Pa.). EDTA was purchased from Bioshop (Burlington, ON). All SPR assays were carried out using a Biacore T200 Surface Plasmon Resonance instrument (Cytiva Life Sciences, (Marlborough, MA)) with PBST running buffer (with 0.5 M EDTA stock solution added to 3.4 mM final concentration) at a temperature of 25° C. […]
The first flow cell was left empty to use as a blank control. […] Buffer injections were performed for each analyte injection to be used for referencing.
For the molecule B3, the Kd amounted to 97 nM.

The target of another assay is T2, human IL-15 (human, UniProt P40933 49-162).
T2 construct: also called Premium grade IL-15; GMP grade human IL-15
T2 sequence (P40933 49-162 limits assumed): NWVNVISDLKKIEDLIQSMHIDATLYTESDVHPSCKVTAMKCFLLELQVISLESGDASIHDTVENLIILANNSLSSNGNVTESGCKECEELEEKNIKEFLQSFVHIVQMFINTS
The assay can be described thus: SPR, variant captured on anti-human Fc, IL-15 analyte, single-cycle kinetics, 1:1 fit. The procedure: EDC: 1-ethyl-3-(3-dimethylaminopropyl) carbodiimide hydrochloride; NHS: N-Hydroxysuccinimide; SPR: surface plasmon resonance; EDTA: ethylenediaminetetraacetic acid SPR Supplies Series S Sensor Chip CM5, Biacore amine coupling kit (NHS, EDC and 1 M ethanolamine), and 10 mM sodium acetate buffers were purchased from Cytiva Life Sciences (Marlborough, MA). […] PBS running buffer with 1% Tween20 (PBST) was purchased from Teknova Inc. (Hollister, Calif.). Goat polyclonal anti-human Fc antibody was purchased from Jackson Immuno Research Laboratories Inc. (West Grove, Pa.). EDTA was purchased from Bioshop (Burlington, ON). All SPR assays were carried out using a Biacore T200 Surface Plasmon Resonance instrument (Cytiva Life Sciences, (Marlborough, MA)) with PBST running buffer (with 0.5 M EDTA stock solution added to 3.4 mM final concentration) at a temperature of 25° C. The anti-human Fc capture surface was generated using a Series S Sensor Chip CM5 using the default parameters under the Immobilization Wizard in the Biacore T200 control software which was set to target 3000 resonance units (RUs).
The first flow cell was left empty to use as a blank control. […] The captured antibody surfaces were regenerated twice by 10 mM Glycine pH1.5 for 30 seconds at 30 μL/min. Buffer injections were performed for each analyte injection to be used for referencing.
B1 gave a Kd of 0.18 nM.

B2 displayed a Kd of 0.108 nM.

B4 registered a Kd of 0.349 nM.

B5 had a Kd of 0.114 nM.

Take B3: the Kd was 0.116 nM.

The molecule B6 gave a Kd of 0.396 nM.

In turn, B7 came in with a Kd of 0.108 nM.

The target in another assay is T1, human PD-1. The assay can be described thus: SPR, variant as analyte over immobilised PD1 (avidity possible); PD1 capture surface, RV29 as analyte (third entry of the cell; avidity possible).
Regarding B5, the Kd was 2.35 nM.

Another assay has as its target T1, human PD-1. Put plainly: SPR, variant as analyte over immobilised PD1.
Molecule B6 had a Kd of 2.19 nM.

B7: the Kd came out at 3.62 nM.

Another assay concerns the target T2, human IL-15. The assay can be described thus: SPR, variant captured on immobilised PD1, IL-15 analyte, single-cycle kinetics, 1:1 fit.
Turning to B1, the Kd is 0.717 nM.

As to B2, the Kd is 0.352 nM.

In turn, B5 showed a Kd of 0.339 nM.

Molecule B3 displayed a Kd of 0.111 nM.
